Molecular target: E. coli small ribosomal 30S subunit (E. coli (MRE600)) (UniProt P0AG67)

E. coli RNA polymerase core complex, sequence (P0A7Z4 whole entry): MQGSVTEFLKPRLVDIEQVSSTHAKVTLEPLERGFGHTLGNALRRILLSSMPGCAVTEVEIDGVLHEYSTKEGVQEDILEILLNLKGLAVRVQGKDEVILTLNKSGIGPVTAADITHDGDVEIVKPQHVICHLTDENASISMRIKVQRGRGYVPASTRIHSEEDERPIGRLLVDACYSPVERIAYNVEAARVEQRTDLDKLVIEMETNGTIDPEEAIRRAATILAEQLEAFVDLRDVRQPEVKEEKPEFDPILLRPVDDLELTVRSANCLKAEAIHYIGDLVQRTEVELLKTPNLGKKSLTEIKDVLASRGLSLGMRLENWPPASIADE
E. coli RNA polymerase core complex, sequence (P0A8V2 2-1341): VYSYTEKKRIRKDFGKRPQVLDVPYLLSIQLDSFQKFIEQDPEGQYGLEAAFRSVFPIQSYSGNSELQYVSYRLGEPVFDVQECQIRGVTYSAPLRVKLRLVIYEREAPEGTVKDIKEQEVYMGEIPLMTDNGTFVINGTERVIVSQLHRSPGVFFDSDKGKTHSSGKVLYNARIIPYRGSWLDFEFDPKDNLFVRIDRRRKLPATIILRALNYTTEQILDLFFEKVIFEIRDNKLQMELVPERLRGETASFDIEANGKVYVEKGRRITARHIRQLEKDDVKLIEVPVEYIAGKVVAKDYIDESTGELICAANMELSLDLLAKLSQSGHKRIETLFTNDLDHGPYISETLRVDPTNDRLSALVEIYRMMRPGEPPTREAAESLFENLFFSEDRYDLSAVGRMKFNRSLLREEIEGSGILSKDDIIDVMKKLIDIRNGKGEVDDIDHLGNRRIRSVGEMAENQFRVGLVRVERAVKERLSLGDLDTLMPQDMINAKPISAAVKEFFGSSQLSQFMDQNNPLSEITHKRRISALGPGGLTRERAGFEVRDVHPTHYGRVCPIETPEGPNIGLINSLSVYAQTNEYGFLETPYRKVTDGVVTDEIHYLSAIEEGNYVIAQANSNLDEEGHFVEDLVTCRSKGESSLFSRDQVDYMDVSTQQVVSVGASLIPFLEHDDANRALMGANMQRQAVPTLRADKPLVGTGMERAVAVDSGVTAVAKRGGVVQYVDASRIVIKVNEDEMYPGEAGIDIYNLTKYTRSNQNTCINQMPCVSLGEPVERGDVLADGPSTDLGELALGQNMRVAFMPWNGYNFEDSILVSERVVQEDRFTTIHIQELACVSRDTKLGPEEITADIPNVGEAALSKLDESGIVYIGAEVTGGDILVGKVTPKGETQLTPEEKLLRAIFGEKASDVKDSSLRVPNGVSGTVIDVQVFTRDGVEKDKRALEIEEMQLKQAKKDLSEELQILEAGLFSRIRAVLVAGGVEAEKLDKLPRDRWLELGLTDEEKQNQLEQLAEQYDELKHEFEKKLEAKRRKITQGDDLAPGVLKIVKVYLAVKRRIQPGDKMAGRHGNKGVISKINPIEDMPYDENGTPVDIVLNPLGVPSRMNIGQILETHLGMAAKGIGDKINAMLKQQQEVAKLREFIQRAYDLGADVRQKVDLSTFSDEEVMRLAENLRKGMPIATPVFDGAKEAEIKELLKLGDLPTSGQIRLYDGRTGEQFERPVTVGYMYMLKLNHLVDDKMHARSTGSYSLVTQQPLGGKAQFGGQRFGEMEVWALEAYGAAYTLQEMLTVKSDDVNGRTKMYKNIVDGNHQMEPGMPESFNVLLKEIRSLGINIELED
E. coli RNA polymerase core complex, sequence (P0A8T7 8-1376): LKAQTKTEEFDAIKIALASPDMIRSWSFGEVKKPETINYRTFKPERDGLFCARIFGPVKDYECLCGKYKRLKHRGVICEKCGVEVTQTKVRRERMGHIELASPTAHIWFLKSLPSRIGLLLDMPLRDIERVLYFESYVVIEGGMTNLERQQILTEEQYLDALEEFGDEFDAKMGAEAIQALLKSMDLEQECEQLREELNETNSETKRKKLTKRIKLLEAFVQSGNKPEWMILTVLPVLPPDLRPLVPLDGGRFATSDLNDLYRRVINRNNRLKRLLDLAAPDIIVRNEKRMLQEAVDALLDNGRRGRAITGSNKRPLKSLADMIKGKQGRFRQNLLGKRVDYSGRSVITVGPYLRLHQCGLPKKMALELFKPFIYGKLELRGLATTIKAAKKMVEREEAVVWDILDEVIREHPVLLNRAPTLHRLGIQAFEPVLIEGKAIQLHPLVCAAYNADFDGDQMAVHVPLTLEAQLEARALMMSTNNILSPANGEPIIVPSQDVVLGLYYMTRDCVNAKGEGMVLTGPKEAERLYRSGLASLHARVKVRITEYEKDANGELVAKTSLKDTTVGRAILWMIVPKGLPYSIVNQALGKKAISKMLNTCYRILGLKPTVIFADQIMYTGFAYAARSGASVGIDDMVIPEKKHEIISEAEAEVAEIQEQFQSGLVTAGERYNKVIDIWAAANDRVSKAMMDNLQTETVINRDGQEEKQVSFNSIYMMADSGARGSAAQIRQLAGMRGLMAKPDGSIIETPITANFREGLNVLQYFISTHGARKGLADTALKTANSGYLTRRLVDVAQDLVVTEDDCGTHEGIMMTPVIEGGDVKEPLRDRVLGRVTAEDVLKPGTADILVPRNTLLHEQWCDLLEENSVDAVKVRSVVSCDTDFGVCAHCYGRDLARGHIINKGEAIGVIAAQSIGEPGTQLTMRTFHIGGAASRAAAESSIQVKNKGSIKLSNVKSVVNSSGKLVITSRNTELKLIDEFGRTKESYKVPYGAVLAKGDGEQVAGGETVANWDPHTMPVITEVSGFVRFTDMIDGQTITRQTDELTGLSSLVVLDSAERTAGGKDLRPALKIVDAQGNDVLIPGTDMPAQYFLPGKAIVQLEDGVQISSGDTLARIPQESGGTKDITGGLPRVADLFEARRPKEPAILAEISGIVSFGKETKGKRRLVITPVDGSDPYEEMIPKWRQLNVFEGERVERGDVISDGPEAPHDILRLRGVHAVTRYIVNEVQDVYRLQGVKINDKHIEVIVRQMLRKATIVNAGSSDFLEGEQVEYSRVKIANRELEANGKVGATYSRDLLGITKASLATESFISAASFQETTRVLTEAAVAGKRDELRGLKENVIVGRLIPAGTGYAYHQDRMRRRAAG
E. coli RNA polymerase core complex, sequence (P0A800 whole entry): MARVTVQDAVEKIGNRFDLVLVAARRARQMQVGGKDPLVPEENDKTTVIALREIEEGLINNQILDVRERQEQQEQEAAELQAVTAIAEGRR

Substance: E. coli RNA polymerase core complex (from UniProt P0A7Z4 1-329; P0A8V2 2-1341; P0A8T7 8-1376; P0A800 1-91) (complex; C-terminal 6xHis tag on beta' omitted; Zn-bound beta' Zn-finger; core without sigma; K12 sequences assumed)
- Kd: 21 nM
